Consider 2 molecules from doi:10.1101/2024.11.27.625426 (bioRxiv, 2024).

Assay [1] addresses sNAp of A/New Caledonia/20/1999 (NC99, H1N1) NA (Influenza A virus A/New …, UniProt Q7TG96, stabilised). Briefly: ELISA. As to conditions: both partners purified. On the technique in general: In an ELISA, binding on a coated surface is turned into a signal by an enzyme label.
Assay [2] has as its target T1, NA of influenza B-Victoria lineage virus B/Colorado/06/2017 (B/Vic CO17) (Influenza B virus B/Colorado/06/2017 …, UniProt A0A1X9RX69).
T1 construct: not shown: His6, N-terminal, kept
The assay can be described thus: ELISA. Conditions: both partners purified.

Residue numbers refer to the chain shown, from its start.

B1: NCS.1.1 mAb (IgG) (antibody, V domains shown)
VH: QVQLQESGPRLVKPSETLSLTCSVSGESISSGGYYWTWIRQHPGKGLEWIGNIFDTGSTDYSPSLKTRLTISIDTSKNQFYLRLNSATAADTAVYYCARVGFSLETDRPYYLGLDVWGQGTTVTVSS
VL: DIVMTQSPLSLPVTPGEPASISCRSSQSLLHSNGYTYLDWYLQKPGQSPQLLISFTSNRASGVPDRFSGSGSGTYFTLKISRVEAEDVGVYYCMQAVQTPWTFGQGTKVEIK
notes: copies: 2 + 2
On to B1, for which the binding result in assay [1] and in assay [2] was “binds” each time.

B2: NCS.1.3 mAb (IgG) (antibody, V domains shown)
VH: B1 VH with N85T
VL: B1 VL with S10T, S54Y, T56A, T99S
notes: copies: 2 + 2
On to B2, for which the binding result in assay [1] and in assay [2] was “binds” each time.
